In patent US9249224B2 (RINAT NEUROSCIENCE CORP., priority 2011, dated 2016):
Structures can show the parent of a compound that is named as a salt. Marks after values point to notes of the source that are not given here. Blank lines part the entries; values can stand above or below the molecule they belong to.

What was measured:
CT26 tumors = test: CT26 syngeneic mouse model of colorectal cancer, tumor volume and weight; format: in vivo; conditions: day 28, BALB/c mice bearing CT26 tumors, Ab11 10 mg/kg, irinotecan 100 mg/kg IP, hydrochloride
Experimental: The CT26 cell line was used as a syngeneic mouse model of colorectal cancer. Mice were injected with tumor cells and dosed with the Ab11 antibody alone or in combination with iriniotecan.
BALB/c mice (BALB/cAnNCrl) were obtained from Charles River (Hollister, Calif., USA) and maintained in the animal facility at Rinat. […] The mice were housed in microisolators (filter top cages) under pathogen-free conditions with a 12-h light/12-h dark schedule and fed autoclaved standard chow and water throughout the experiment.
Cells were harvested by brief incubation with Accutase (A6964-100ML) (Sigma™ Aldrich, Inc., St. Louis, Mo., USA) and washed in new medium for counting. […]
Mice were dose intraperitoneally (IP) every second to third day. Tumor volume and body weight were measured at least twice a week. […]
The tumors were measured every 2-4 days with a digital caliper (mm). Baseline tumor volumes were calculated using the following formula: V=d2^2×(d½) where d1 was the longest diameter of the tumor and d2 was the perpendicular to d1. At the end of the study, while the study was still blinded, outliers were determined and excluded from all four groups. Tumors that were 3× standard error of the mean < mean and 3× standard error of the mean > mean on all days after day 14 (days 18, 22, 25, and 28) were determined outliers. Tumor weight at the end of the study was also measured.

cyno GHR = test: STAT5 phosphorylation in vitro assay, cyno GHR-transfected HEK293 cells; format: cell-based, cynomolgus monkey; conditions: for fluorescent signal ave (phospho-STAT5): Table 8, cyno GHR-transfected cells
Experimental: This Example illustrates the effect of GHR antibodies in an in vitro STAT5 phosphorylation assay. In this Example, the ability of GHR antibodies to block GHR downstream signaling was tested in vitro using human GHR overexpressing cells and cyno GHR overexpressing cells.
GHR antagonist antibody Ab13 was tested for its ability to block STAT5 in an in vitro assay. HEK293 cells were transiently transfected with either DNA encoding full-length human GHR (SEQ ID NO: 140) or DNA encoding full-length cyno GHR (SEQ ID NO: 141). Cells were cultured in freestyle media for approximately 60 hours before testing. Cells were washed with DPBS (Dulbecco's Phosphate-Buffered Saline) and resuspended in Freestyle media, then counted using a hemocytometer. 1×10^6 cells were seeded per well in 6-well plates in 2 mls of Freestyle media. Cells were incubated for 2 hours at 37° C., then treated with 5, 50, or 500 nM Ab13 antibody in media. Cells were incubated at 37° C. with gentle mixing for 5 min with antibodies. 4.5 nM GH (Genotropin) was then added to all but control wells. Cells were incubated with GH at 37° C. with gentle mixing for 10 minutes.
Following incubation with GH, 2 ml of ice cold DPBS with 1× protease inhibitor cocktail (Roche) and 1 mM sodium orthovanadate (BioLabs) were added to each well and the plates were placed on ice. Cells were transferred to 5 ml tubes and spun down to create a cell pellet and the wash buffer was aspirated, leaving the cell pellet.
Reagents from Millipore™ MILLIPLEX® MAP Cell Signaling Buffer and Detection Kit (cat. #48-602) were used to lyse and treat the cell pellets. Millipore lysis buffer with 1× protease inhibitor cocktail and 1 mM sodium orthovanadate was added to each pellet at a volume of 200 ul/pellet. Cells were vortexed and incubated for 15 minutes at room temp with occasional vortexing. Millipore Assay buffer 2 with 1× protease inhibitor cocktail and 1 mM sodium orthovanadate was then added to the lysates at 300 ul/well.
Millipore™ MILLIPLEX® MAP Phospho STAT5N8 (Tyr694/699) MAPmate™ beads (Cat. #46-641) were resuspended in Assay Buffer 2 (from Millipore™ kit cat. #48-602) and loaded on a 96-well filter plate (provided in kit) at 25 ul/well, 25 ul/well of sample lysate was added to the wells and the beads and samples were incubated overnight at 4′C with shaking in the dark.
The liquid was then aspirated using a vacuum manifold and the remaining beads were washed using Millipore™ kit wash buffer. 25 ul Millipore™ kit detection antibody was added and incubated for 1 hour at room temperature with shaking in the dark. The detection antibody was vacuumed through and 25 ul kit streptavidin—Phycoerythrin was added and incubated in the dark for 15 min with shaking. 25 ul kit amplification buffer was then added and incubated for 15 min with shaking in the dark. The liquid was aspirated using a vacuum manifold, and the beads were resuspended in 150 ul kit assay buffer 2 and mixed on a shaker for 5 minutes before reading the plate.
The plate was read using a Luminex™ 200 instrument and fluorescent signal emitted from the samples was measured, The results of the STAT5 assay are shown in Tables 5 and 6. “Ave” indicates the average fluorescent signal, and “SEM” indicates the standard error of the mean.
Antibodies SS3 and SS1 (hIgG2Δa) were tested using a STAT5 phosphorylation assay. For the STAT5 assay, full-length human GHR overexpressing HEK293 cells or full-length cyno GHR-overexpressing HEK293 cells were cultured, counted by automated cell counter, and seeded in warm freestyle media in 12-well plates (5×10^5 cells/well in 1 ml media). Cells were allowed to settle for 3 hours at 37° C. then treated with 2.5, 5, 50, or 500 nM of SS1 or SS3 in media. […] Cells were incubated with GH at 37° C. with gentle mixing for 10 minutes.
Reagents from Millipore™ MILLIPLEX® MAP Cell Signaling Buffer and Detection Kit (cat, #48-602) were used to lyse and treat the cell pellets. […]

human GHR = target: T1, human GHR (Homo sapiens, UniProt P10912, I544L); test: STAT5 phosphorylation in vitro assay, human GHR-transfected HEK293 cells; format: cell-based; conditions: for fluorescent signal ave (phospho-STAT5): Table 7, human GHR-transfected cells
T1 construct: expressed in transfected cells; host or cells: HEK293
T1 sequence (P10912 19-638 I544L): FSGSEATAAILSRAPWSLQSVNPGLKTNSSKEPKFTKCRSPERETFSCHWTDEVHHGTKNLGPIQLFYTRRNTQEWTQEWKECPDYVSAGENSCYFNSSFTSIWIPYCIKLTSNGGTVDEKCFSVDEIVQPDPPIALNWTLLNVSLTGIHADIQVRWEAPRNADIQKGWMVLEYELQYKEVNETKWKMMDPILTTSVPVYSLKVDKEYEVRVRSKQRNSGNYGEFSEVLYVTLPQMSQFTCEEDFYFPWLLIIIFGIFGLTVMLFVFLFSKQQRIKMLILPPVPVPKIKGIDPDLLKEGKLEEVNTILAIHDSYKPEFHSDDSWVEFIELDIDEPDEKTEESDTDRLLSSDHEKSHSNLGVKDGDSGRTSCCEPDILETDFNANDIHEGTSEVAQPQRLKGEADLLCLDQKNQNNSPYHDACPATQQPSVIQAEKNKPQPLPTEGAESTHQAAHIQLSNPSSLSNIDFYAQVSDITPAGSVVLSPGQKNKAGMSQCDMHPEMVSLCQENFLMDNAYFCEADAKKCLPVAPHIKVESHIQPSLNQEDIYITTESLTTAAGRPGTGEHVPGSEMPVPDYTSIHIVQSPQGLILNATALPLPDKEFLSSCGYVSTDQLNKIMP
Experimental: This Example illustrates the effect of GHR antibodies in an in vitro STAT5 phosphorylation assay. In this Example, the ability of GHR antibodies to block GHR downstream signaling was tested in vitro using human GHR overexpressing cells and cyno GHR overexpressing cells. […]
Antibodies SS3 and SS1 (hIgG2Δa) were tested using a STAT5 phosphorylation assay. For the STAT5 assay, full-length human GHR overexpressing HEK293 cells or full-length cyno GHR-overexpressing HEK293 cells were cultured, counted by automated cell counter, and seeded in warm freestyle media in 12-well plates (5×10^5 cells/well in 1 ml media). Cells were allowed to settle for 3 hours at 37° C. then treated with 2.5, 5, 50, or 500 nM of SS1 or SS3 in media.
Millipore™ lysis buffer with 1× protease inhibitor cocktail and sodium orthovanadate was added to each pellet at a volume of 100 ul/pellet Cells were vortexed and incubated for 15 minutes at room temp with occasional vortexing, Millipore™ Assay buffer 2 with 1× protease inhibitor cocktail and 1 mM sodium orthovanadate was then added to the lysates at 200 ul/well.
25 ul/well of sample lysate was added to the wells and the beads and samples were incubated overnight at 4′C with shaking in the dark. […]
The plate was read using a Luminex 200 instrument and florescent signal emitted from the samples was measured.

cyno GHR, sequence (as listed by the source): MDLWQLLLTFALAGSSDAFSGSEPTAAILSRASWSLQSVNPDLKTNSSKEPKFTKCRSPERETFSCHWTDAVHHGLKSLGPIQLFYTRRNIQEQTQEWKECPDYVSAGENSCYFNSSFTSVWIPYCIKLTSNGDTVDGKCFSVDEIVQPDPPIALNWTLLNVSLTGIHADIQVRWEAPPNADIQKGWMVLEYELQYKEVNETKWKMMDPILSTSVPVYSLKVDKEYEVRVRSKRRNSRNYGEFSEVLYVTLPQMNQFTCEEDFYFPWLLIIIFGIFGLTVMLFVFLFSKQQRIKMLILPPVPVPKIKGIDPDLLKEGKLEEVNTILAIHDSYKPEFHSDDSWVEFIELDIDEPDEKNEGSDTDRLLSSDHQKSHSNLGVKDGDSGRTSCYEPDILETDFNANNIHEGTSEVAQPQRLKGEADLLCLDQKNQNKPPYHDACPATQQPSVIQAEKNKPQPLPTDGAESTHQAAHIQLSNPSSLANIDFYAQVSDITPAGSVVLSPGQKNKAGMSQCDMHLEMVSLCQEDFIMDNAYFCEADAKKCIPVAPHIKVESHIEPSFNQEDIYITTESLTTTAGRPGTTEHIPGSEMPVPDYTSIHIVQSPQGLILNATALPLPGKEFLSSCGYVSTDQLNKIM

Molecule: CCc1c2c(nc3ccc(OC(=O)N4CCC(N5CCCCC5)CC4)cc13)-c1cc3c(c(=O)n1C2)COC(=O)[C@]3(O)CC [Irinotecan, Irinotecan hydrochloride]
Tumor weight (in grams), mean (CT26 tumors): 1.2** g
Tumor weight (in grams), mean (CT26 tumors; listed as irinotecan): 1.2 g

Molecule: GH: growth hormone, added at 4.5 nM to stimulate STAT5 signaling in GHR-transfected cells [reference compound]
fluorescent signal Ave (phospho-STAT5) (cyno GHR; Table 6, cyno GHR-transfected cells, 4.5 nM GH alone): 562
fluorescent signal ave (phospho-STAT5) (cyno GHR; 4.5 nM GH alone): 847

fluorescent signal ave (phospho-STAT5) (human GHR; 2.5 nM antibody + 4.5 nM GH): 100
fluorescent signal ave (phospho-STAT5) (human GHR; 5 nM antibody + 4.5 nM GH): 48
fluorescent signal ave (phospho-STAT5) (human GHR; 50 nM antibody + 4.5 nM GH): 0
fluorescent signal ave (phospho-STAT5) (human GHR; 500 nM antibody + 4.5 nM GH): 0
B1: SS3: humanized GHR antagonist antibody; VL SEQ ID NO: 9, VH SEQ ID NO: 10 (antibody, V domains shown)
VH: EVQLVESGGGLVKPGGSLRLSCAASGFTFSDAWMDWVRQAPGKGLEWVAEIRSKANNHATYYAESVKGRFTISRDDSKNTLYLQMNSLKTEDTAVYYCTLFRDYWGQGTLVTVSS
VL: EIVLTQSPGTLSLSPGERATLSCTATSSVSSSYLNWYQQKPGQAPRLLIYSTSNLASGIPDRFSGSGSGTDFTLTISRLEPEDFAVYYCHQYHRFTPTFGGGTKVEIK
modifications: Humanized and/or affinity matured antibody sequence
fluorescent signal ave (phospho-STAT5) (cyno GHR; 2.5 nM antibody + 4.5 nM GH): 621
fluorescent signal ave (phospho-STAT5) (cyno GHR; 5 nM antibody + 4.5 nM GH): 518
fluorescent signal ave (phospho-STAT5) (cyno GHR; 50 nM antibody + 4.5 nM GH): 50
fluorescent signal ave (phospho-STAT5) (cyno GHR; 500 nM antibody + 4.5 nM GH): 8
effect on GH-stimulated STAT5 signaling (cyno GHR; cells expressing cyno GHR, 4.5 nM GH): blocked STAT5 signaling in a dose-dependent manner
effect on GH-stimulated STAT5 signaling (human GHR; cells expressing human GHR, 4.5 nM GH): blocked STAT5 signaling in a dose-dependent manner
